The values below are quoted from earlier work in paper PMC4776130.

Where two headings read alike, the source gives them in different places.

For orientation: pKa means the negative logarithm of the acid dissociation constant.

Data set [1] deals with T1, His15 (UniProt position 33, AAMKRHGLDNY).
The target in data set [2] is T1, His15. Description: NMR.
Data set [3] concerns the target Asp83 (UniProt position 104, VKGEWDKIKKD). In words: NMR. The following applies: HdeA dimer (remains dimeric from pH 6 down to pH 3).
The target in another data set is Glu81 (UniProt position 102, DKVKGEWDKIK). In words: NMR. The following applies: HdeA dimer (remains dimeric from pH 6 down to pH 3).
The target of another data set is Asp43 (UniProt position 64, ALNNKDKPEDA). Description: NMR. The following applies: HdeA dimer (remains dimeric from pH 6 down to pH 3).
For another data set, the target named is Asp51 (UniProt position 72, EDAVLDVQGIA). Description: NMR. The following applies: HdeA dimer (remains dimeric from pH 6 down to pH 3).
A further data set has as its target Glu26 (UniProt position 47, FLAVDESFQPT). In words: NMR. The following applies: HdeA dimer (remains dimeric from pH 6 down to pH 3).
Another data set has as its target Asp69 (UniProt position 90, QACTQDKQANF). Description: NMR. The following applies: HdeA dimer (remains dimeric from pH 6 down to pH 3).
The target in another data set is Asp47 (UniProt position 68, KDKPEDAVLDV). In words: NMR. The following applies: HdeA dimer (remains dimeric from pH 6 down to pH 3).
Another data set addresses Asp25 (UniProt position 46, DFLAVDESFQP). Description: NMR. The following applies: HdeA dimer (remains dimeric from pH 6 down to pH 3).
The target in the next data set is Asp76 (UniProt position 97, QANFKDKVKGE). Description: NMR. The following applies: HdeA dimer (remains dimeric from pH 6 down to pH 3).
In a further data set the target is Glu46 (UniProt position 67, NKDKPEDAVLD). Description: NMR. The following applies: HdeA dimer (remains dimeric from pH 6 down to pH 3).
In another data set the target is Asp20 (UniProt position 41, SWTCEDFLAVD). Description: NMR. The following applies: HdeA dimer (remains dimeric from pH 6 down to pH 3).
The target of the next data set is Glu19 (UniProt position 40, NSWTCEDFLAV). In words: NMR. The following applies: HdeA dimer (remains dimeric from pH 6 down to pH 3).
Another data set addresses Glu10 (UniProt position 92, KKLHKEPATLI). The following applies: folded SNase Delta+PHS.
The target in the next data set is Glu73 (UniProt position 155, NAKKIEVEFDK). The following applies: folded SNase Delta+PHS.
The target in a further data set is Asp19 (UniProt position 101, LIKAIDGDTVK). The following applies: folded SNase Delta+PHS.
A further data set has as its target Asp77 (UniProt position 159, IEVEFDKGQRT). The following applies: folded SNase Delta+PHS.
The target of a further data set is Asp95 (UniProt position 177, AYIYADGKMVN). The following applies: folded SNase Delta+PHS.
A further data set deals with Glu135 (UniProt position 217, AQAKKEKLNIW). The following applies: folded SNase Delta+PHS.
A further data set deals with Glu129 (UniProt position 211, LLRKAEAQAKK). The following applies: folded SNase Delta+PHS.
The next data set concerns the target Glu67 (UniProt position 149, TKKMVENAKKI). The following applies: folded SNase Delta+PHS.
Another data set addresses Glu43 (UniProt position 125, LVDTPETKHPK). The following applies: folded SNase Delta+PHS.
In a further data set the target is His121 (UniProt position 203, KGNNTHEQLLR).
Another data set has as its target Glu75 (UniProt position 157, KKIEVEFDKGQ). The following applies: folded SNase Delta+PHS.
The target in another data set is Glu122 (UniProt position 204, GNNTHEQLLRK). The following applies: folded SNase Delta+PHS.
The target of a further data set is Asp40 (UniProt position 122, RLLLVDTPETK). The following applies: folded SNase Delta+PHS.
The next data set addresses Glu101 (UniProt position 183, GKMVNEALVRQ). The following applies: folded SNase Delta+PHS.
Data set [4] deals with Asp83 (UniProt position 165, KGQRTDKYGRG). The following applies: folded SNase Delta+PHS.
A further data set has as its target His8 (UniProt position 90, STKKLHKEPAT).
For the next data set, the target named is Asp21 (UniProt position 103, KAIDGDTVKLM). The following applies: folded SNase Delta+PHS.
The next data set has as its target Glu52 (UniProt position 134, PKKFNEKYGPE). The following applies: folded SNase Delta+PHS.
The target of another data set is Glu57 (UniProt position 139, EKYGPEASAFT). The following applies: folded SNase Delta+PHS.

In the case of “Hen egg-white lysozyme (HEWL) (Gallus gallus)”, the pKa is given as 5.68–5.74 with His15 [1] and 5.5 ± 0.2 with His15 [2].

On to “Acid stress chaperone HdeA (Escherichia coli)”, for which the pKa is reported as 3.97 with Asp83 [3]; 4.23 with Glu81; 3.87 with Asp43; 3.83 with Asp51; 4.57 with Glu26; 3.74 with Asp69. Moreover, the pKa in the data set with Asp47 is recorded as 4.14; with Asp25 it was 3.71; in the data set with Asp76, 3.75; in the data set with Glu46, 4.07; in the data set with Asp20 it was 3.66; in the data set with Glu19 it was 4.38.

Take “Staphylococcal nuclease (SNase), Delta+PHS variant (Staphylococcus aureus; G50F;V51N;P117G;H124L;S128A;del44-49)”: the pKa in the data set with Glu10 was 2.82; with Glu73, 3.31; in the data set with Asp19, 2.21; with Asp77, less than 2.2; with Asp95, 2.16; with Glu135, 3.76. The pKa is reported as 3.75 with Glu129; 3.76 with Glu67; 4.32 with Glu43; 5.25 in the data set with His121; 3.26 with Glu75; 3.89 with Glu122. Besides, the pKa is on record as 3.87 with Asp40; 3.81 with Glu101; less than 2.2 in the data set with Asp83 [4]; 6.50 with His8; 6.54 with Asp21; 3.93 in the data set with Glu52. Further, the pKa in the data set with Glu57 is on record as 3.49.
